According to US20240301067A1 (WUXI BIOLOGICS IRELAND, published 2024):

T1: Mouse PD-1 extracellular domain, hFc tag (mouse, UniProt Q02242 25-169)
T1 construct: extracellular domain; also called mPro1.ECD.hFc; not shown: human Fc tag at C-terminus
T1 sequence (looked up): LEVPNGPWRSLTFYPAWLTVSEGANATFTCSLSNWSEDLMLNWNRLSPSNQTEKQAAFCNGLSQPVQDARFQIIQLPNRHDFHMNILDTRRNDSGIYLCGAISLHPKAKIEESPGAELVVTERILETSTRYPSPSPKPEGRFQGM

B1: AP17R1-2H2-Z1 (VHH)
VHH: QVQLVESGGGVVQPGGSLRLSCAASDSIDSLVNMGWYRQAPGKQRELVALIANYITHYADFVKGRFTISRDNSKNTLYLQMNSLRAEDTAVYYCYARNIIVDYWGQGTLVTVSS
notes: also called the humanized AP17R1-2H2; not shown: his- and c-Myc-tag from vector pETbac
B2: AP17R1-2H2-Z1-R1-4B2 (VHH)
VHH: QVQLVESGGGVVQPGGSLRLSCAASDSISSLVNMGWYRQAPGKQRELVALIANYITHYADFVKGRFTISRDNSKNTLYLQMNSLRAEDTAVYYCYARNIIVDYWGQGTLVTVSS
notes: not shown: his- and c-Myc-tag from vector pETbac
B3: AP17R1-2H2-Z1-R1-4D8 (VHH)
VHH: QVQLVESGGGVVQPGGSLRLSCAASDSIQSLVNMGWYRQAPGKQRELVALIANYITHYADFVKGRFTISRDNSKNTLYLQMNSLRAEDTAVYYCYARNIIVDYWGQGTLVTVSS
notes: as for B2
B4: AP17R1-2H2-Z1-R1-6E1 (VHH)
VHH: QVQLVESGGGVVQPGGSLRLSCAASDSIDSMVNMGWYRQAPGKQRELVALIANYITHYADFVKGRFTISRDNSKNTLYLQMNSLRAEDTAVYYCYARNIIVDYWGQGTLVTVSS
notes: as for B2
B5: AP17R1-2H2-Z1-R1-14A1 (VHH)
VHH: QVQLVESGGGVVQPGGSLRLSCAASDSIDSLVNMGWYRQAPGKQRELVALIATYITHYADFVKGRFTISRDNSKNTLYLQMNSLRAEDTAVYYCYARNIIVDYWGQGTLVTVSS
notes: as for B2
B6: AP17R1-2H2-Z1-R1-14B3 (VHH)
VHH: QVQLVESGGGVVQPGGSLRLSCAASDSIDSLVNMGWYRQAPGKQRELVALIARYITHYADFVKGRFTISRDNSKNTLYLQMNSLRAEDTAVYYCYARNIIVDYWGQGTLVTVSS
notes: as for B2
B7: AP17R1-2H2-Z1-R1-14F1 (VHH)
VHH: QVQLVESGGGVVQPGGSLRLSCAASDSIDSLVNMGWYRQAPGKQRELVALIAYYITHYADFVKGRFTISRDNSKNTLYLQMNSLRAEDTAVYYCYARNIIVDYWGQGTLVTVSS
notes: as for B2
B8: AP17R1-2H2-Z1-R1-14F3 (VHH)
VHH: QVQLVESGGGVVQPGGSLRLSCAASDSIDSLVNMGWYRQAPGKQRELVALIAWYITHYADFVKGRFTISRDNSKNTLYLQMNSLRAEDTAVYYCYARNIIVDYWGQGTLVTVSS
notes: as for B2
B9: AP17R1-2H2-Z1-R1-27A2 (VHH)
VHH: QVQLVESGGGVVQPGGSLRLSCAASDSIDSLVNMGWYRQAPGKQRELVALIANYITHYADFVKGRFTISRDNSKNTLYLQMNSLRAEDTAVYYCYARSIIVDYWGQGTLVTVSS
notes: as for B2
B10: AP17R1-2H2-Z1-R1-29B2 (VHH)
VHH: QVQLVESGGGVVQPGGSLRLSCAASDSIDSLVNMGWYRQAPGKQRELVALIANYITHYADFVKGRFTISRDNSKNTLYLQMNSLRAEDTAVYYCYARNIRVDYWGQGTLVTVSS
notes: as for B2
B11: AP17R1-2H2-Z1-R1-29B6 (VHH)
VHH: QVQLVESGGGVVQPGGSLRLSCAASDSIDSLVNMGWYRQAPGKQRELVALIANYITHYADFVKGRFTISRDNSKNTLYLQMNSLRAEDTAVYYCYARNIYVDYWGQGTLVTVSS
notes: as for B2
B12: AP17R1-2H2-Z1-R1-30D3 (VHH)
VHH: QVQLVESGGGVVQPGGSLRLSCAASDSIDSLVNMGWYRQAPGKQRELVALIANYITHYADFVKGRFTISRDNSKNTLYLQMNSLRAEDTAVYYCYARNIIEDYWGQGTLVTVSS
notes: as for B2

Legend:
Assay in all cases: SPR Biacore 8K; PD-1-hFc captured on anti-human Fc chip, VHH injected; 1:1 fit
[1] = target: T2, Human PD-1 extracellular domain, hFc tag (human, UniProt Q15116 25-170)
T2 construct: extracellular domain; also called hPro1.ECD.hFc; not shown: human Fc tag at C-terminus
Protocol: (§1) To screen WBP3056 VHH antibodies from affinity maturation, koff to hPro1.ECD.hFc, mPro1.ECD.hFc and cynoPro1.ECD.hFc (AcrobioSystems) was detected by SPR assay using Biacore 8K. hPro1.ECD.hFc, mPro1.ECD.hFc or cynoPro1.ECD.hFc (AcrobioSystems) was captured on an anti-human IgG Fc antibody immobilized CM5 sensor chip. Each VHH antibody was injected over the sensor chip at a flow rate of 30 uL/min for an association phase of 120 s, followed by 150 s dissociation. The association and dissociation curve was fit to a 1:1 model using Langmuir analysis.

[2] = target: T1, Mouse PD-1 extracellular domain, hFc tag
Protocol: as §1

[3] = target: T3, Cynomolgus PD-1 extracellular domain, hFc tag (cynomolgus, UniProt B0LAJ3 25-170)
T3 construct: Bought; also called cynoPro1.ECD.hFc; cyno PD-1 ECD protein
Protocol: as §1

T3 sequence (B0LAJ3 entry or part of it limits assumed): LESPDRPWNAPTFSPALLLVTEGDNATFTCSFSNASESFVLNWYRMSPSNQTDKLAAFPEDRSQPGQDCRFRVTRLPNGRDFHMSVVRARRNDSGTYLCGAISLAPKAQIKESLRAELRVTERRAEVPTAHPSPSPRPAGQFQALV
T2 sequence (Q15116 25-170): as the sequence (B0LAJ3 entry or part of it limits assumed) above, with E2D, A10P, L19V, A35T, R75Q, A144T counted along it

Row | Binder | Kd [1] [nM] | koff [1] [s⁻¹] | kon [1] [M⁻¹ s⁻¹] | Kd [2] [nM] | koff [2] [s⁻¹] | kon [2] [M⁻¹ s⁻¹] | Kd [3] [nM] | koff [3] [s⁻¹] | kon [3] [M⁻¹ s⁻¹]
1 | B1 | 12.7 | 0.00392 | 307000 | 66.2 | 0.0136 | 205000 | 36.4 | 0.00863 | 237000
2 | B2 | 9.19 | 0.00413 | 450000 | 34.6 | 0.0101 | 292000 | 25.5 | 0.00879 | 345000
3 | B3 | 9.49 | 0.00396 | 417000 | 33.7 | 0.00955 | 284000 | 26 | 0.00833 | 320000
4 | B4 | 7.48 | 0.00328 | 439000 | 50.8 | 0.0146 | 287000 | 22.1 | 0.00754 | 341000
5 | B5 | 2.06 | 0.00112 | 543000 | 12.3 | 0.0047 | 381000 | 5.04 | 0.00213 | 424000
6 | B6 | 5.09 | 0.00249 | 489000 | 17.3 | 0.00596 | 344000 | 13.2 | 0.00484 | 366000
7 | B7 | 3.28 | 0.00135 | 411000 | 7.8 | 0.00218 | 280000 | 8.98 | 0.00277 | 309000
8 | B8 | 2.35 | 0.00109 | 465000 | 27.1 | 0.00732 | 270000 | 7.18 | 0.00247 | 344000
9 | B9 | 8.56 | 0.00331 | 387000 | 33.7 | 0.00894 | 265000 | 24.6 | 0.00745 | 302000
10 | B10 | 8.54 | 0.00347 | 406000 | 55.8 | 0.0148 | 264000 | 25.7 | 0.00817 | 318000
11 | B11 | 7.01 | 0.00298 | 425000 | 39.1 | 0.0108 | 277000 | 20 | 0.00646 | 323000
12 | B12 | 6.79 | 0.00282 | 416000 | 42.5 | 0.0118 | 277000 | 19.2 | 0.00624 | 325000
